Publication PMC8512817, “Domain Analysis and Motif Matcher (DAMM): A Program to Predict Selectivity Determinants in Monosiga brevicollis PDZ Domains Using Human PDZ Data” (Molecules, 2021)

These binders were tested against T1, DLG1-1 PDZ (DLG1 PDZ1, residues 220-317) (human, UniProt Q12959 220-317) (assay: fluorescence polarisation). Settings: both partners purified.
T1 construct: not shown: His tag, N-terminal, kept
T1 sequence (Q12959 220-317): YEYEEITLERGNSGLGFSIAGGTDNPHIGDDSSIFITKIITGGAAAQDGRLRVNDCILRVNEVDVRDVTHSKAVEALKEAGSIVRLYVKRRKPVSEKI

Q: For EDETAL [A9V7Z4 peptide (EDETAL)], which Ki is on record?
A: 460 ± 190 µM

Q: QDETAL [A9UXE1 peptide (QDETAL)] was tested. Which Ki did it give?
A: 190 ± 20 µM

Q: SSRTRRETQL [HPV16 E6 peptide (SSRTRRETQL)] was tested. Which Ki did it give?
A: 23 ± 5 µM

Q: ESESKV [GIRK3 peptide (ESESKV)] was tested. Which Ki did it give?
A: 350 ± 20 µM

Q: For ASESKV [B1AR peptide (ASESKV)], which Ki is on record?
A: 44 ± 23 µM

Q: For QSSSEA [GAIP peptide (QSSSEA)], which Ki is on record?
A: 980 ± 180 µM

Q: How did the Ki turn out when PNQSVV [TYRP1 peptide (PNQSVV)] was run?
A: 46 ± 21 µM

Q: With QSESRL [A9UP44 peptide (QSESRL)] as the binder, how does the Ki read?
A: 39 ± 25 µM

Q: With WDETNL [BPIX peptide (WDETNL)] as the binder, how does the Ki read?
A: 460 ± 140 µM
